# In patent US10801046B2, “Methods and materials for biosynthesizing multifunctional, multivariate molecules via carbon chain modification” (INVISTA NORTH AMERICA S.A.R.L., priority 2016, dated 2020):
# B1: SEQ ID NO: 25: Mycobacterium marinum carboxylate reductase (protein)
# chain: MSPITREERLERRIQDLYANDPQFAAAKPATAITAAIERPGLPLPQIIETVMTGYADRPALAQRSVEFVTDAGTGHTTLRLLPHFETISYGELWDRISALADVLSTEQTVKPGDRVCLLGFNSVDYATIDMTLARLGAVAVPLQTSAAITQLQPIVAETQPTMIAASVDALADATELALSGQTATRVLVFDHHRQVDAHRAAVESARERLAGSAVVETLAEAIARGDVPRGASAGSAPGTDVSDDSLALLIYTSGSTGAPKGAMYPRRNVATFWRKRTWFEGGYEPSITLNFMPMSHVMGRQILYGTLCNGGTAYFVAKSDLSTLFEDLALVRPTELTFVPRVWDMVFDEFQSEVDRRLVDGADRVALEAQVKAEIRNDVLGGRYTSALTGSAPISDEMKAWVEELLDMHLVEGYGSTEAGMILIDGAIRRPAVLDYKLVDVPDLGYFLTDRPHPRGELLVKTDSLFPGYYQRAEVTADVFDADGFYRTGDIMAEVGPEQFVYLDRRNNVLKLSQGEFVTVSKLEAVFGDSPLVRQIYIYGNSARAYLLAVIVPTQEALDAVPVEELKARLGDSLQEVAKAAGLQSYEIPRDFIIETTPWTLENGLLTGIRKLARPQLKKHYGELLEQIYTDLAHGQADELRSLRQSGADAPVLVTVCRAAAALLGGSASDVQPDAHFTDLGGDSLSALSFTNLLHEIFDIEVPVGVIVSPANDLQALADYVEAARKPGSSRPTFASVHGASNGQVTEVHAGDLSLDKFIDAATLAEAPRLPAANTQVRTVLLTGATGFLGRYLALEWLERMDLVDGKLICLVRAKSDTEARARLDKTFDSGDPELLAHYRALAGDHLEVLAGDKGEADLGLDRQTWQRLADTVDLIVDPAALVNHVLPYSQLFGPNALGTAELLRLALTSKIKPYSYTSTIGVADQIPPSAFTEDADIRVISATRAVDDSYANGYSNSKWAGEVLLREAHDLCGLPVAVFRCDMILADTTWAGQLNVPDMFTRMILSLAATGIAPGSFYELAADGARQRAHYDGLPVEFIAEAISTLGAQSQDGFHTYHVMNPYDDGIGLDEFVDWLNESGCPIQRIADYGDWLQRFETALRALPDRQRHSSLLPLLHNYRQPERPVRGSIAPTDRFRAAVQEAKIGPDKDIPHVGAPIIVKYVSDLRLLGLL
# modifications: Mycobacterium marinum (strain ATCC BAA-535 / M)
# notes: Mycobacterium marinum carboxylate reductase
# B2: SEQ ID NO: 27: Mycobacterium smegmatis fatty-acid-CoA ligase with carboxylate reductase activity (protein)
# chain: MTIETREDRFNRRIDHLFETDPQFAAARPDEAISAAAADPELRLPAAVKQILAGYADRPALGKRAVEFVTDEEGRTTAKLLPRFDTITYRQLAGRIQAVTNAWHNHPVNAGDRVAILGFTSVDYTTIDIALLELGAVSVPLQTSAPVAQLQPIVAETEPKVIASSVDFLADAVALVESGPAPSRLVVFDYSHEVDDQREAFEAAKGKLAGTGVVVETITDALDRGRSLADAPLYVPDEADPLTLLIYTSGSTGTPKGAMYPESKTATMWQAGSKARWDETLGVMPSITLNFMPMSHVMGRGILCSTLASGGTAYFAARSDLSTFLEDLALVRPTQLNFVPRIWDMLFQEYQSRLDNRRAEGSEDRAEAAVLEEVRTQLLGGRFVSALTGSAPISAEMKSWVEDLLDMHLLEGYGSTEAGAVFIDGQIQRPPVIDYKLVDVPDLGYFATDRPYPRGELLVKSEQMFPGYYKRPEITAEMFDEDGYYRTGDIVAELGPDHLEYLDRRNNVLKLSQGEFVTVSKLEAVFGDSPLVRQIYVYGNSARSYLLAVVVPTEEALSRWDGDELKSRISDSLQDAARAAGLQSYEIPRDFLVETTPFTLENGLLTGIRKLARPKLKAHYGERLEQLYTDLAEGQANELRELRRNGADRPVVETVSRAAVALLGASVTDLRSDAHFTDLGGDSLSALSFSNLLHEIFDVDVPVGVIVSPATDLAGVAAYIEGELRGSKRPTYASVHGRDATEVRARDLALGKFIDAKTLSAAPGLPRSGTEIRTVLLTGATGFLGRYLALEWLERMDLVDGKVICLVRARSDDEARARLDATFDTGDATLLEHYRALAADHLEVIAGDKGEADLGLDHDTWQRLADTVDLIVDPAALVNHVLPYSQMFGPNALGTAELIRIALTTTIKPYVYVSTIGVGQGISPEAFVEDADIREISATRRVDDSYANGYGNSKWAGEVLLREAHDWCGLPVSVFRCDMILADTTYSGQLNLPDMFTRLMLSLVATGIAPGSFYELDADGNRQRAHYDGLPVEFIAEAISTIGSQVTDGFETFHVMNPYDDGIGLDEYVDWLIEAGYPVHRVDDYATWLSRFETALRALPERQRQASLLPLLHNYQQPSPPVCGAMAPTDRFRAAVQDAKIGPDKDIPHVTADVIVKYISNLQMLGLL
# modifications: Mycobacterium smegmatis (strain ATCC 700084 / mc(2)155)
# Test: Carboxylate reductase activity, 7-hydroxyheptanoate to 7-hydroxyheptanal, NADPH consumption at 340 nm
# Type: biochemical
# Conditions: enhanced by gene product of sfp, 20 min, against empty vector control, FIG. 44
# Description: A sequence encoding a His-tag was added to the genes from Mycobacterium marinum, Mycobacterium smegmatis, Segniliparus rugosus, Mycobacterium smegmatis, Mycobacterium massiliense, and Segniliparus rotundus that encode the carboxylate reductases of SEQ ID NOs: 25 (GenBank Accession No. ACC40567.1), 27 (GenBank Accession No. ABK75684.1), 29 (GenBank Accession No. ABK71854.1), 31 (GenBank Accession No. EFV11917.1), 37 (GenBank Accession No. EIV11143.1), and 38 (GenBank Accession No. ADG98140.1) such that N-terminal HIS tagged carboxylate reductases could be produced. Each of the modified genes was cloned into a pET Duet expression vector alongside a sfp gene encoding a His-tagged phosphopantetheine transferase from Bacillus subtilis, both under control of the T7 promoter.
# Each expression vector was transformed into a BL21[DE3] E. coli host and the resulting recombinant E. coli strains were cultivated at 37° C. in a 250 mL shake flask culture containing 50 mL LB media and antibiotic selection pressure, with shaking at 230 rpm. Each culture was induced overnight at 37° C. using an auto-induction media.
# The pellet from each induced shake flask culture was harvested via centrifugation. Each pellet was resuspended and lysed via sonication. The cell debris was separated from the supernatant via centrifugation. The carboxylate reductases and phosphopantetheine transferase were purified from the supernatant using Ni-affinity chromatography, diluted 10-fold into 50 mM HEPES buffer (pH=7.5) and concentrated via ultrafiltration.
# Enzyme activity (i.e., 7-hydroxyheptanoate to 7-hydroxyheptanal) assays were performed in triplicate in a buffer composed of a final concentration of 50 mM HEPES buffer (pH=7.5), 2 mM […], 10 mM MgCl2, 1 mM ATP, and 1 mM NADPH. Each enzyme activity assay reaction was initiated by adding purified carboxylate reductase and phosphopantetheine transferase or the empty vector control to the assay buffer containing the 7-hydroxyheptanoate and then incubated at room temperature for 20 min. The consumption of NADPH was monitored by absorbance at 340 nm.
row,Molecule,"acceptance of 7-hydroxyheptanoate as substrate, forming 7-hydroxyheptanal"
1,B1,accepted 7-hydroxyheptanoate as substrate
2,B2,accepted 7-hydroxyheptanoate as substrate
